Measured values taken from patent US11278600B2, “Human alpha-galactosidase variants” (Codexis, Inc., priority 2014, dated 2022).
Substitutions are numbered along the chain they refer to.

Key:
Type in all cases: biochemical
[1] = HTP-analysis of supernatants pretreated with base (MUGal hydrolysis); details: for Relative Activity of GLA Variants After Challenge at pH 9.65: activity of the variant/activity of Rd4BB (SEQ ID NO: 15); for Relative Activity of GLA Variants After Challenge at pH 9.7: activity of the variant/activity of Rd3BB (SEQ ID NO: 13)
Procedure, shortened: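 Fluorescence of released 4-MU (Ex 355 nm, Em 448 nm) after carbonate quench reports MUGal hydrolysis by GLA variants secreted from INVSc1 yeast. Before the acidic (pH 4.3-4.8) 30-180 min reaction at 37° C, supernatants had been pre-incubated at pH 7.0-9.7 for 1-18 h at 37° C.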

[2] = HTP-analysis of supernatants pretreated with acid (MUGal hydrolysis); details: challenge at pH 3.7
Procedure, shortened: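 Supernatants from INVSc1 yeast secreting GLA variants were challenged at 37° C. for 1-3 h in McIlvaine buffer at pH 3.3-4.3. Residual activity was then measured on 4 mM MUGal substrate stock at pH 4.8 with citrate buffer pH 4.3, over 30-180 min at 37° C. Reactions were quenched with sodium carbonate and read by fluorescence (Ex 355/Em 448 nm).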

[3] = HTP-analysis of yeast culture supernatants, no challenge (MUGal hydrolysis)
Procedure, shortened: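 Activity read as 4-methylumbelliferyl α-D-galactopyranoside hydrolysis: fluorescence (355/448 nm) after sodium carbonate stop, following 30-180 min at 37° C with 2 mM MUGal stock at pH 4.6–4.8. Enzyme source is unchallenged culture supernatant of INVSc1 yeast expressing GLA variants, grown 66-84 h at 30° C.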

[4] = activity of the variant/activity of Rd4BB (SEQ ID NO: 15)
[5] = activity of the variant/activity of Rd3BB (SEQ ID NO: 13)

B1: 388 (protein)
chain: LDNGLARTPTMGWLHWERFMCNLDCQEEPDSCISEKLFMEMAERMVSEGWKDAGYEYLCIDDCWMAPQRDSEGRLQADPQRFPHGIRQLANYLHSKGLKLGIYADVGNKTCAGFPGSFGYYDIDAQTFADWGVDLLKFDGCYCDSLENLADGYKHMSLALNRTGRSIVYSCEWPLYMWPFQKPNYTEIRQYCNHWRNFADIDDSWKSIKSILDWTSRNQERIVDVAGPGGWNDPDMLVIGNFGLSWDQQVTQMALWAIMAAPLFMSNDLRHISPQAKALLQDKDVIAINQDPLGKQGYQLRKGDNFEVWERPLSGDAWAVAIINRQEIGGPRSYTIPVASLGKGVACNPACFITQLLPVKRQLGFYNWTSRLKSHINPTGTVLLQLENTMQMSLKDLL
modifications: Synthetic Polypeptide sequence of Variant No. 388 of mature Human GLA
- Relative Activity of GLA Variants After Challenge at pH 9.65 [1]: + (0.5 to 1.5 relative activity over Rd4BB (SEQ ID NO: 15))
- Relative Activity of GLA Variants After Challenge at pH 3.7 [2, 4]: − (<0.5 relative activity over Rd4BB (SEQ ID NO: 15))
- Relative Activity of GLA Variants After No Challenge (NC) [3, 4]: + (0.5 to 1.5 relative activity over Rd4BB (SEQ ID NO: 15))

B2: 550 (protein)
chain: B1 chain with Y92H, L93V, K206A, K295S
modifications: Synthetic Polypeptide sequence of Variant No. 550 of mature Human GLA
- Relative Activity of GLA Variants After Challenge at pH 9.7 [1]: ++ (++ = >5 to 10 relative activity over Rd3BB (SEQ ID NO: 13))
- Relative Activity of GLA Variants After Challenge at pH 3.7 [2, 5]: + (+ = 1.5 to 5 relative activity over Rd3BB (SEQ ID NO: 13))
- Relative Activity of GLA Variants After No Challenge (NC) [3, 5]: + (+ = 1.5 to 5 relative activity over Rd3BB (SEQ ID NO: 13))

B3: 552 (protein)
chain: B1 chain with Y92H, L93V, K206A, A317D
modifications: Synthetic Polypeptide sequence of Variant No. 552 of mature Human GLA
- Relative Activity of GLA Variants After Challenge at pH 9.7 [1]: ++ (++ = >5 to 10 relative activity over Rd3BB (SEQ ID NO: 13))
- Relative Activity of GLA Variants After Challenge at pH 3.7 [2, 5]: + (+ = 1.5 to 5 relative activity over Rd3BB (SEQ ID NO: 13))
- Relative Activity of GLA Variants After No Challenge (NC) [3, 5]: + (+ = 1.5 to 5 relative activity over Rd3BB (SEQ ID NO: 13))

B4: 556 (protein)
chain: B1 chain with Y92H, L93V, K206A, G344D
modifications: Synthetic Polypeptide sequence of Variant No. 556 of mature Human GLA
- Relative Activity of GLA Variants After Challenge at pH 9.7 [1]: + (+ = 1.5 to 5 relative activity over Rd3BB (SEQ ID NO: 13))
- Relative Activity of GLA Variants After Challenge at pH 3.7 [2, 5]: − (− = <1.5 relative activity to Rd3BB (SEQ ID NO: 13))
- Relative Activity of GLA Variants After No Challenge (NC) [3, 5]: − (− = <1.5 relative activity to Rd3BB (SEQ ID NO: 13))

B5: 517 (protein)
chain: B1 chain with D2Q, Y92H, L93V, K206A
modifications: Synthetic Polypeptide sequence of Variant No. 517 of mature Human GLA
- Relative Activity of GLA Variants After Challenge at pH 9.7 [1]: + (+ = 1.5 to 5 relative activity over Rd3BB (SEQ ID NO: 13))
- Relative Activity of GLA Variants After Challenge at pH 3.7 [2, 5]: + (+ = 1.5 to 5 relative activity over Rd3BB (SEQ ID NO: 13))
- Relative Activity of GLA Variants After No Challenge (NC) [3, 5]: + (+ = 1.5 to 5 relative activity over Rd3BB (SEQ ID NO: 13))

B6: 553 (protein)
chain: B1 chain with Y92H, L93V, K206A, A317Q
modifications: Synthetic Polypeptide sequence of Variant No. 553 of mature Human GLA
- Relative Activity of GLA Variants After Challenge at pH 9.7 [1]: ++ (++ = >5 to 10 relative activity over Rd3BB (SEQ ID NO: 13))
- Relative Activity of GLA Variants After Challenge at pH 3.7 [2, 5]: + (+ = 1.5 to 5 relative activity over Rd3BB (SEQ ID NO: 13))
- Relative Activity of GLA Variants After No Challenge (NC) [3, 5]: + (+ = 1.5 to 5 relative activity over Rd3BB (SEQ ID NO: 13))

B7: 547 (protein)
chain: B1 chain with Y92H, L93V, K206A, K295L
modifications: Synthetic Polypeptide sequence of Variant No. 547 of mature Human GLA
- Relative Activity of GLA Variants After Challenge at pH 9.7 [1]: ++ (++ = >5 to 10 relative activity over Rd3BB (SEQ ID NO: 13))
- Relative Activity of GLA Variants After Challenge at pH 3.7 [2, 5]: + (+ = 1.5 to 5 relative activity over Rd3BB (SEQ ID NO: 13))
- Relative Activity of GLA Variants After No Challenge (NC) [3, 5]: + (+ = 1.5 to 5 relative activity over Rd3BB (SEQ ID NO: 13))

B8: 551 (protein)
chain: B1 chain with Y92H, L93V, K206A, K295T
modifications: Synthetic Polypeptide sequence of Variant No. 551 of mature Human GLA
- Relative Activity of GLA Variants After Challenge at pH 9.7 [1]: ++ (++ = >5 to 10 relative activity over Rd3BB (SEQ ID NO: 13))
- Relative Activity of GLA Variants After Challenge at pH 3.7 [2, 5]: + (+ = 1.5 to 5 relative activity over Rd3BB (SEQ ID NO: 13))
- Relative Activity of GLA Variants After No Challenge (NC) [3, 5]: + (+ = 1.5 to 5 relative activity over Rd3BB (SEQ ID NO: 13))

B9: 555 (protein)
chain: B1 chain with Y92H, L93V, K206A, G344A
modifications: Synthetic Polypeptide sequence of Variant No. 555 of mature Human GLA
- Relative Activity of GLA Variants After Challenge at pH 9.7 [1]: + (+ = 1.5 to 5 relative activity over Rd3BB (SEQ ID NO: 13))
- Relative Activity of GLA Variants After Challenge at pH 3.7 [2, 5]: + (+ = 1.5 to 5 relative activity over Rd3BB (SEQ ID NO: 13))
- Relative Activity of GLA Variants After No Challenge (NC) [3, 5]: + (+ = 1.5 to 5 relative activity over Rd3BB (SEQ ID NO: 13))

B10: 390 (protein)
chain: B1 chain with L93Q
modifications: Synthetic Polypeptide sequence of Variant No. 390 of mature Human GLA
- Relative Activity of GLA Variants After Challenge at pH 9.65 [1]: − (<0.5 relative activity over Rd4BB (SEQ ID NO: 15))
- Relative Activity of GLA Variants After Challenge at pH 3.7 [2, 4]: + (0.5 to 1.5 relative activity over Rd4BB (SEQ ID NO: 15))
- Relative Activity of GLA Variants After No Challenge (NC) [3, 4]: + (0.5 to 1.5 relative activity over Rd4BB (SEQ ID NO: 15))

B11: 557 (protein)
chain: B1 chain with Y92H, L93V, K206A, G344S
modifications: Synthetic Polypeptide sequence of Variant No. 557 of mature Human GLA
- Relative Activity of GLA Variants After Challenge at pH 9.7 [1]: ++ (++ = >5 to 10 relative activity over Rd3BB (SEQ ID NO: 13))
- Relative Activity of GLA Variants After Challenge at pH 3.7 [2, 5]: + (+ = 1.5 to 5 relative activity over Rd3BB (SEQ ID NO: 13))
- Relative Activity of GLA Variants After No Challenge (NC) [3, 5]: + (+ = 1.5 to 5 relative activity over Rd3BB (SEQ ID NO: 13))

B12: 549 (protein)
chain: B1 chain with Y92H, L93V, K206A, K295Q
modifications: Synthetic Polypeptide sequence of Variant No. 549 of mature Human GLA
- Relative Activity of GLA Variants After Challenge at pH 9.7 [1]: ++ (++ = >5 to 10 relative activity over Rd3BB (SEQ ID NO: 13))
- Relative Activity of GLA Variants After Challenge at pH 3.7 [2, 5]: ++ (++ = >5 to 10 relative activity over Rd3BB (SEQ ID NO: 13))
- Relative Activity of GLA Variants After No Challenge (NC) [3, 5]: + (+ = 1.5 to 5 relative activity over Rd3BB (SEQ ID NO: 13))

B13: 548 (protein)
chain: B1 chain with Y92H, L93V, K206A, K295N
modifications: Synthetic Polypeptide sequence of Variant No. 548 of mature Human GLA
- Relative Activity of GLA Variants After Challenge at pH 9.7 [1]: ++ (++ = >5 to 10 relative activity over Rd3BB (SEQ ID NO: 13))
- Relative Activity of GLA Variants After Challenge at pH 3.7 [2, 5]: +++ (+++ = >10 relative activity over Rd3BB (SEQ ID NO: 13))
- Relative Activity of GLA Variants After No Challenge (NC) [3, 5]: + (+ = 1.5 to 5 relative activity over Rd3BB (SEQ ID NO: 13))

B14: 389 (protein)
chain: B1 chain with L93S
modifications: Synthetic Polypeptide sequence of Variant No. 389 of mature Human GLA
- Relative Activity of GLA Variants After Challenge at pH 9.65 [1]: − (<0.5 relative activity over Rd4BB (SEQ ID NO: 15))
- Relative Activity of GLA Variants After Challenge at pH 3.7 [2, 4]: + (0.5 to 1.5 relative activity over Rd4BB (SEQ ID NO: 15))
- Relative Activity of GLA Variants After No Challenge (NC) [3, 4]: + (0.5 to 1.5 relative activity over Rd4BB (SEQ ID NO: 15))

B15: 554 (protein)
chain: B1 chain with Y92H, L93V, K206A, A346G
modifications: Synthetic Polypeptide sequence of Variant No. 554 of mature Human GLA
- Relative Activity of GLA Variants After Challenge at pH 9.7 [1]: ++ (++ = >5 to 10 relative activity over Rd3BB (SEQ ID NO: 13))
- Relative Activity of GLA Variants After Challenge at pH 3.7 [2, 5]: + (+ = 1.5 to 5 relative activity over Rd3BB (SEQ ID NO: 13))
- Relative Activity of GLA Variants After No Challenge (NC) [3, 5]: + (+ = 1.5 to 5 relative activity over Rd3BB (SEQ ID NO: 13))
